This passage reports koff results from publication PMC7505474 (2020).

Broadly, the koff is the first-order rate constant of dissociation.

For this assay, the target named is Recombinant TLR4 protein (R&D Systems 478-TR-050) (UniProt O00206 24-631). Briefly: SPR. Background: SPR reads the build-up and loss of mass on a sensor chip optically.
Chain of Recombinant TLR4 protein (R&D Systems 478-TR-050) (O00206 24-631): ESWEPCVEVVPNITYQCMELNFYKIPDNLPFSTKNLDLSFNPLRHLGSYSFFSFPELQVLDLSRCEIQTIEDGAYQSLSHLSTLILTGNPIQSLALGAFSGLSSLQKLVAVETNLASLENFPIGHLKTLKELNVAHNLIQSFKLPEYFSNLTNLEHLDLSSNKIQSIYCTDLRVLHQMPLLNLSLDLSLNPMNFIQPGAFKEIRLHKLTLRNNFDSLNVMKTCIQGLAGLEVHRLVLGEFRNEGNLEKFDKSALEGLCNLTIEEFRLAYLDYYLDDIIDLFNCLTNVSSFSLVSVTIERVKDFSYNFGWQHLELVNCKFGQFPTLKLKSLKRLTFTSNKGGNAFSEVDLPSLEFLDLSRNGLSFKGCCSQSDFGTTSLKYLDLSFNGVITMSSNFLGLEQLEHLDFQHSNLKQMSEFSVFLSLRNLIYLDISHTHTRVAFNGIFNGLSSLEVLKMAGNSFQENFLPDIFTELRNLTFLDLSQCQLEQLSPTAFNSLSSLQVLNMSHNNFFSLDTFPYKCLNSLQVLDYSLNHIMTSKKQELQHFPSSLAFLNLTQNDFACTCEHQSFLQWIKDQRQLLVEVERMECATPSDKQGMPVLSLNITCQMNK

B1: human recombinant IFI16 protein (natural protein)
chain: MGKKYKNIVLLKGLEVINDYHFRMVKSLLSNDLKLNLKMREEYDKIQIADLMEEKFRGDAGLGKLIKIFEDIPTLEDLAETLKKEKLKVKGPALSRKRKKEVDATSPAPSTSSTVKTEGAEATPGAQKRKKSTKEKAGPKGSKVSEEQTQPPSPAGAGMSTAMGRSPSPKTSLSAPPNSSSTENPKTVAKCQVTPRRNVLQKRPVIVKVLSTTKPFEYETPEMEKKIMFHATVATQTQFFHVKVLNTSLKEKFNGKKIIIISDYLEYDSLLEVNEESTVSEAGPNQTFEVPNKIINRAKETLKIDILHKQASGNIVYGVFMLHKKTVNQKTTIYEIQDDRGKMDVVGTGQCHNIPCEEGDKLQLFCFRLRKKNQMSKLISEMHSFIQIKKKTNPRNNDPKSMKLPQEQRQLPYPSEASTTFPESHLRTPQMPPTTPSSSFFTKKSEDTISKMNDFMRMQILKEGSHFPGPFMTSIGPAESHPHTPQMPPSTPSSSFLTTLKPRLKTEPEEVSIEDSAQSDLKEVMVLNATESFVYEPKEQKKMFHATVATENEVFRVKVFNIDLKEKFTPKKIIAIANYVCRNGFLEVYPFTLVADVNADRNMEIPKGLIRSASVTPKINQLCSQTKGSFVNGVFEVHKKNVRGEFTYYEIQDNTGKMEVVVHGRLTTINCEEGDKLKLTCFELAPKSGNTGELRSVIHSHIKVIKTRKNKKDILNPDSSMETSPDFFF
On to B1, for which the koff came to 0.00576 s⁻¹.
